B1: Coronatine-insensitive protein 1 (Arabidopsis thaliana (Mouse-ear cress)), O04197 (parent)
chain: MEDPDIKRCKLSCVATVDDVIEQVMTYITDPKDRDSASLVCRRWFKIDSETREHVTMALCYTATPDRLSRRFPNLRSLKLKGKPRAAMFNLIPENWGGYVTPWVTEISNNLRQLKSVHFRRMIVSDLDLDRLAKARADDLETLKLDKCSGFTTDGLLSIVTHCRKIKTLLMEESSFSEKDGKWLHELAQHNTSLEVLNFYMTEFAKISPKDLETIARNCRSLVSVKVGDFEILELVGFFKAAANLEEFCGGSLNEDIGMPEKYMNLVFPRKLCRLGLSYMGPNEMPILFPFAAQIRKLDLLYALLETEDHCTLIQKCPNLEVLETRNVIGDRGLEVLAQYCKQLKRLRIERGADEQGMEDEEGLVSQRGLIALAQGCQELEYMAVYVSDITNESLESIGTYLKNLCDFRLVLLDREERITDLPLDNGVRSLLIGCKKLRRFAFYLRQGGLTDLGLSYIGQYSPNVRWMLLGYVGESDEGLMEFSRGCPNLQKLEMRGCCFSERAIAAAVTKLPSLRYLWVQGYRASMTGQDLMQMARPYWNIELIPSRRVPEVNQQGEIREMEHPAHILAYYSLAGQRTDCPTTVRVLKEPI

Variants of: B1
Settings: with skp1a_arath SKP1A

effect of a mutation on the interaction	Variant
decreasing interaction	MEDPDIKRCKLSCVATVDDVIAQVMTYITDPKDRDSASLVCRRWFKIDSETREHVTMALCYTATPDRLSRRFPNLRSLKLKGKPRAAMFNLIPENWGGYVTPWVTEISNNLRQLKSVHFRRMIVSDLDLDRLAKARADDLETLKLDKCSGFTTDGLLSIVTHCRKIKTLLMEESSFSEKDGKWLHELAQHNTSLEVLNFYMTEFAKISPKDLETIARNCRSLVSVKVGDFEILELVGFFKAAANLEEFCGGSLNEDIGMPEKYMNLVFPRKLCRLGLSYMGPNEMPILFPFAAQIRKLDLLYALLETEDHCTLIQKCPNLEVLETRNVIGDRGLEVLAQYCKQLKRLRIERGADEQGMEDEEGLVSQRGLIALAQGCQELEYMAVYVSDITNESLESIGTYLKNLCDFRLVLLDREERITDLPLDNGVRSLLIGCKKLRRFAFYLRQGGLTDLGLSYIGQYSPNVRWMLLGYVGESDEGLMEFSRGCPNLQKLEMRGCCFSERAIAAAVTKLPSLRYLWVQGYRASMTGQDLMQMARPYWNIELIPSRRVPEVNQQGEIREMEHPAHILAYYSLAGQRTDCPTTVRVLKEPI [E22A]

Variants of: B1
Settings: with skp1b_arath SKP1B

effect of a mutation on the interaction	Variant
decreasing interaction	MEDPDIKRCKLSCVATVDDVIAQVMTYITDPKDRDSASLVCRRWFKIDSETREHVTMALCYTATPDRLSRRFPNLRSLKLKGKPRAAMFNLIPENWGGYVTPWVTEISNNLRQLKSVHFRRMIVSDLDLDRLAKARADDLETLKLDKCSGFTTDGLLSIVTHCRKIKTLLMEESSFSEKDGKWLHELAQHNTSLEVLNFYMTEFAKISPKDLETIARNCRSLVSVKVGDFEILELVGFFKAAANLEEFCGGSLNEDIGMPEKYMNLVFPRKLCRLGLSYMGPNEMPILFPFAAQIRKLDLLYALLETEDHCTLIQKCPNLEVLETRNVIGDRGLEVLAQYCKQLKRLRIERGADEQGMEDEEGLVSQRGLIALAQGCQELEYMAVYVSDITNESLESIGTYLKNLCDFRLVLLDREERITDLPLDNGVRSLLIGCKKLRRFAFYLRQGGLTDLGLSYIGQYSPNVRWMLLGYVGESDEGLMEFSRGCPNLQKLEMRGCCFSERAIAAAVTKLPSLRYLWVQGYRASMTGQDLMQMARPYWNIELIPSRRVPEVNQQGEIREMEHPAHILAYYSLAGQRTDCPTTVRVLKEPI [E22A]

Variants of: B1
Settings: with cul1_arath CUL1, Q94AH6
Sequence of cul1_arath CUL1, Q94AH6 (Q94AH6 whole entry): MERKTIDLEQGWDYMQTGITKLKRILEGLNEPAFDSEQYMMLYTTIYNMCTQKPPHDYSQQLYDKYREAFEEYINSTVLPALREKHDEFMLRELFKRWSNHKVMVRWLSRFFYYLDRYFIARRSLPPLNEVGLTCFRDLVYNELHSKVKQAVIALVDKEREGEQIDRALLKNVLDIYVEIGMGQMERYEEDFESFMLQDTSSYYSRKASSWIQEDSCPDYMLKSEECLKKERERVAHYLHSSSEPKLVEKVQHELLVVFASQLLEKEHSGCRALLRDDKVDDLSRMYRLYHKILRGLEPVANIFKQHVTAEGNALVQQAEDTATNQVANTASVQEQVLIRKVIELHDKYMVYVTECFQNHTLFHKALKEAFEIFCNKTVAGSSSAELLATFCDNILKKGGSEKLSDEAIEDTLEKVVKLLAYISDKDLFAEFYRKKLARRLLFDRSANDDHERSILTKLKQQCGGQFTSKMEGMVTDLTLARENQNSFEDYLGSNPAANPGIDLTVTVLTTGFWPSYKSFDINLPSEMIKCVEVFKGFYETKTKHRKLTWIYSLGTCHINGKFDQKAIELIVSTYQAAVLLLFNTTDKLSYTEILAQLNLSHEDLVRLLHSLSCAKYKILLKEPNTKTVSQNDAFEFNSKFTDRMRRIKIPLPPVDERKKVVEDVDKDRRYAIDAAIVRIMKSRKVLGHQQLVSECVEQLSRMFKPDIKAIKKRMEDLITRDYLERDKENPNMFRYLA

effect of a mutation on the interaction	Variant
decreasing interaction	MEDPDIKRCKLSCVATVDDVIAQVMTYITDPKDRDSASLVCRRWFKIDSETREHVTMALCYTATPDRLSRRFPNLRSLKLKGKPRAAMFNLIPENWGGYVTPWVTEISNNLRQLKSVHFRRMIVSDLDLDRLAKARADDLETLKLDKCSGFTTDGLLSIVTHCRKIKTLLMEESSFSEKDGKWLHELAQHNTSLEVLNFYMTEFAKISPKDLETIARNCRSLVSVKVGDFEILELVGFFKAAANLEEFCGGSLNEDIGMPEKYMNLVFPRKLCRLGLSYMGPNEMPILFPFAAQIRKLDLLYALLETEDHCTLIQKCPNLEVLETRNVIGDRGLEVLAQYCKQLKRLRIERGADEQGMEDEEGLVSQRGLIALAQGCQELEYMAVYVSDITNESLESIGTYLKNLCDFRLVLLDREERITDLPLDNGVRSLLIGCKKLRRFAFYLRQGGLTDLGLSYIGQYSPNVRWMLLGYVGESDEGLMEFSRGCPNLQKLEMRGCCFSERAIAAAVTKLPSLRYLWVQGYRASMTGQDLMQMARPYWNIELIPSRRVPEVNQQGEIREMEHPAHILAYYSLAGQRTDCPTTVRVLKEPI [E22A]

From IntAct's records for PubMed 12172031
